In patent publication US20240247080A1, “GLP1/GIP/NPY2 RECEPTOR TRIPLE AGONISTS” (Boehringer Ingelheim International GmbH, priority 2022, published 2024):
Numbering of substitutions follows the chain as printed. Each block holds one binder with its values, some of them ahead of it. Starred links: 1 amine or outer side, 2 acyl side, 3 side chain; linkers in the order of their positions; H or OH if unused. Non-standard residues stand in square brackets, D forms with d. Groups on a side chain read outwards from the residue. No end group written: not given here. *: point of attachment. C20 diacid = O=C(O)CCCCCCCCCCCCCCCCCCC(=O)*; γGlu = O=C(O)[C@H](CCC(=O)[*:2])N[*:1]; AEEA = NCCOCCOCC(=O)O; Aib = CC(C)(N)C(=O)O

Key:
Test in all cases: cell-based or functional assay
NPY2 receptor = target: T1, NPY2 receptor (human (printed as hNPY2R), UniProt P49146 1-381)
T1 sequence (looked up): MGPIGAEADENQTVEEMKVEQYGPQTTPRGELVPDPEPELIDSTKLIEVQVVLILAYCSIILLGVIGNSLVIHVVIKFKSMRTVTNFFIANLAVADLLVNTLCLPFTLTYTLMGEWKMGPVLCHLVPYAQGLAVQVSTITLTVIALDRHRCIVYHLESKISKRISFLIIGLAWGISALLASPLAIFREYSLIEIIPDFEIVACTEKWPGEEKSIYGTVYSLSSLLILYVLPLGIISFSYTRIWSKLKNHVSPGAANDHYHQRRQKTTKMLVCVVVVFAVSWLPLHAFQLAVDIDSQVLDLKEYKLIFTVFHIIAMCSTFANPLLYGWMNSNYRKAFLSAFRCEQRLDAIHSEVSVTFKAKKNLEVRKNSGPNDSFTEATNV

GIP receptor = target: T2, GIP receptor (human (printed as hGIPR), UniProt P48546 22-466)
T2 sequence (looked up): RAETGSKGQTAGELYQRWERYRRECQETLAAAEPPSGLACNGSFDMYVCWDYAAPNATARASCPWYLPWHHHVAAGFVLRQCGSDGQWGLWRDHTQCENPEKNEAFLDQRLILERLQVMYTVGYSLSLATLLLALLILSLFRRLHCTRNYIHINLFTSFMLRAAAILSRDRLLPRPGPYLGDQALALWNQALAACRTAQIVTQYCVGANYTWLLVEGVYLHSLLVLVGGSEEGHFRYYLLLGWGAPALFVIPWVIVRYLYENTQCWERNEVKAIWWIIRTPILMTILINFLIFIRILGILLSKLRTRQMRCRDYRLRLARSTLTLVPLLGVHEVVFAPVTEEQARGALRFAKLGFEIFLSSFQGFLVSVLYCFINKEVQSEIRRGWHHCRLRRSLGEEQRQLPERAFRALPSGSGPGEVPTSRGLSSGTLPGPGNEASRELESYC

GLP-1 receptor = GLP-1 receptor (human (printed as hGLP1R), UniProt P43220 24-463)

- EC50 hNPY2R 0.5% hP (CreLuc) (NPY2 receptor): 12.4 nM
- EC50 hNPY2R 100% hP (CreLuc) (NPY2 receptor): 22.5 nM
- EC50 hGIPR 0.5% hP (CreLuc) (GIP receptor): 0.5 nM
- EC50 hGIPR 100% hP (CreLuc) (GIP receptor): 2.94 nM
- EC50 hGLP1R 0.5% hP (CreLuc) (GLP-1 receptor): 0.66 nM
- EC50 hGLP1R 100% hP (CreLuc) (GLP-1 receptor): 14 nM
B1: Compound 215 (peptide)
peptide: YXEGTFTSDYSIXLEKQAQXEFVEWLIKGGPSSGASLRHYYNWLTRQRY
modifications: Aib at 2, 13, 20; K28 side chain carries C20DA-gGlu-gGlu-gGlu-gGlu-gGlu-gGlu-eLys; C-terminal amide

- EC50 hNPY2R 0.5% hP (CreLuc) (NPY2 receptor): > 99.9 nM
- EC50 hNPY2R 100% hP (CreLuc) (NPY2 receptor): 283 nM
- EC50 hGIPR 0.5% hP (CreLuc) (GIP receptor): 0.23 nM
- EC50 hGIPR 100% hP (CreLuc) (GIP receptor): 1.81 nM
- EC50 hGLP1R 0.5% hP (CreLuc) (GLP-1 receptor): 0.19 nM
- EC50 hGLP1R 100% hP (CreLuc) (GLP-1 receptor): 2.65 nM
B3: Compound 214 (peptide)
peptide: B1 peptide with E21A
modifications: Aib at 2, 13, 20; D-Tyr at 49; K28 side chain carries C20DA-gGlu-gGlu-gGlu-gGlu-gGlu-gGlu-eLys; C-terminal amide

- EC50 hNPY2R 0.5% hP (CreLuc) (NPY2 receptor): 87.4 nM
- EC50 hNPY2R 100% hP (CreLuc) (NPY2 receptor): 623 nM
- EC50 hGIPR 0.5% hP (CreLuc) (GIP receptor): 0.36 nM
- EC50 hGIPR 100% hP (CreLuc) (GIP receptor): 2.35 nM
- EC50 hGLP1R 0.5% hP (CreLuc) (GLP-1 receptor): 0.16 nM
- EC50 hGLP1R 100% hP (CreLuc) (GLP-1 receptor): 3.3 nM
B5: Compound 218 (peptide)
peptide: B1 peptide with E21A, W43X
modifications: Aib at 2, 13, 20, 43; K28 side chain carries C20DA-gGlu-gGlu-gGlu-gGlu-gGlu-gGlu-eLys; C-terminal amide

- EC50 hNPY2R 0.5% hP (CreLuc) (NPY2 receptor): 2.81 nM
- EC50 hNPY2R 100% hP (CreLuc) (NPY2 receptor): 16.8 nM
- EC50 hGIPR 0.5% hP (CreLuc) (GIP receptor): 9.45 nM
- EC50 hGIPR 100% hP (CreLuc) (GIP receptor): 64.2 nM
- EC50 hGLP1R 0.5% hP (CreLuc) (GLP-1 receptor): 0.31 nM
- EC50 hGLP1R 100% hP (CreLuc) (GLP-1 receptor): 10.6 nM
B6: Compound 216 (peptide)
peptide: B1 peptide with X20R, E21A
modifications: Aib at 2, 13; D-Arg at 20; K28 side chain carries C20DA-gGlu-gGlu-gGlu-gGlu-gGlu-gGlu-eLys; C-terminal amide

- EC50 hNPY2R 0.5% hP (CreLuc) (NPY2 receptor): 12.8 nM
- EC50 hNPY2R 100% hP (CreLuc) (NPY2 receptor): 43.4 nM
- EC50 hGIPR 0.5% hP (CreLuc) (GIP receptor): 0.46 nM
- EC50 hGIPR 100% hP (CreLuc) (GIP receptor): 2.43 nM
- EC50 hGLP1R 0.5% hP (CreLuc) (GLP-1 receptor): 0.61 nM
- EC50 hGLP1R 100% hP (CreLuc) (GLP-1 receptor): 16.1 nM
Binder: Y[Aib]EGTFTSDYSI[Aib]LEKQAE[Aib]AFVQWLIK([AEEA-AEEA-γGlu-γGlu-γGlu-γGlu-C20 diacid])GGPSEGASLRHYYNWLTRQRY-NH2 (also: TFA salt) [Compound 219]

The next lines start with the binder.

B2: Compound 211 (peptide)
peptide: B1 peptide with X20D, E21A
modifications: Aib at 2, 13; D-Asp at 20; K28 side chain carries C20DA-gGlu-gGlu-gGlu-gGlu-gGlu-gGlu-eLys; C-terminal amide
- EC50 hNPY2R 0.5% hP (CreLuc) (NPY2 receptor): 11.2 nM
- EC50 hNPY2R 100% hP (CreLuc) (NPY2 receptor): 56.3 nM
- EC50 hGIPR 0.5% hP (CreLuc) (GIP receptor): 0.85 nM
- EC50 hGIPR 100% hP (CreLuc) (GIP receptor): 9.79 nM
- EC50 hGLP1R 0.5% hP (CreLuc) (GLP-1 receptor): 0.74 nM
- EC50 hGLP1R 100% hP (CreLuc) (GLP-1 receptor): 25.9 nM

B4: Compound 209 (peptide)
peptide: B1 peptide with K16L, E21A
modifications: Aib at 2, 13, 20; K28 side chain carries C20DA-gGlu-gGlu-gGlu-gGlu-gGlu-gGlu-eLys; C-terminal amide
- EC50 hNPY2R 0.5% hP (CreLuc) (NPY2 receptor): 35.2 nM
- EC50 hNPY2R 100% hP (CreLuc) (NPY2 receptor): 171 nM
- EC50 hGIPR 0.5% hP (CreLuc) (GIP receptor): 0.81 nM
- EC50 hGIPR 100% hP (CreLuc) (GIP receptor): 8.57 nM
- EC50 hGLP1R 0.5% hP (CreLuc) (GLP-1 receptor): 0.48 nM
- EC50 hGLP1R 100% hP (CreLuc) (GLP-1 receptor): 16.7 nM

Binder: Y[Aib]EGTFTSDYSI[Aib]LEKQAQ[Aib]EFVEWLIK([AEEA-AEEA-γGlu-γGlu-γGlu-γGlu-C20 diacid])GGPSSGASLRHYYNWLTRQRY-NH2 (also: TFA salt) [Compound 205]
- EC50 hNPY2R 0.5% hP (CreLuc) (NPY2 receptor): 10.6 nM
- EC50 hNPY2R 100% hP (CreLuc) (NPY2 receptor): 37.7 nM
- EC50 hGIPR 0.5% hP (CreLuc) (GIP receptor): 0.33 nM
- EC50 hGIPR 100% hP (CreLuc) (GIP receptor): 1.87 nM
- EC50 hGLP1R 0.5% hP (CreLuc) (GLP-1 receptor): 0.44 nM
- EC50 hGLP1R 100% hP (CreLuc) (GLP-1 receptor): 12.3 nM

Binder: Y[Aib]EGTFTSDYSI[Aib]LEKQAQ[Aib]AFVEWLIKGGPEEPASLRHYYNWLTRQRY-NH2 (not fully specified (residue 28); also: TFA salt) [Compound 206]
- EC50 hNPY2R 0.5% hP (CreLuc) (NPY2 receptor): 13.4 nM
- EC50 hNPY2R 100% hP (CreLuc) (NPY2 receptor): 61.7 nM
- EC50 hGIPR 0.5% hP (CreLuc) (GIP receptor): 0.25 nM
- EC50 hGIPR 100% hP (CreLuc) (GIP receptor): 2.61 nM
- EC50 hGLP1R 0.5% hP (CreLuc) (GLP-1 receptor): 0.43 nM
- EC50 hGLP1R 100% hP (CreLuc) (GLP-1 receptor): 17.2 nM
